B1: EWEµH (other)
chain: EWEQVQLVETGGGLVQAGGSLRLSCAASGSIFSINAMGWFRQAPGKEREFVATINRSGGRTYYADSVKGRFTISRDNGKNMVYLQMHSLKPEDTAIYYCAAGTGWSPQTDNEYNYWGQGTQVTVSSGGGGSGGGGSGGGGSGGGGSRPCGHPGDTPFGTFTLTGGNVFEYGVKAVYTCNEGYQLLGEINYRECDTDGWTNDIPICEVVKCLPVTAPENGKIVSSAMEPDREYHFGQAVRFVCNSGYKIEGDEEMHCSDDGFWSKEKPKCVEISCKSPDVINGSPISQKIIYKENERFQYKCNMGYEYSERGDAVCTESGWRPLPSCEEAGGGGGGGGGGGGGKCGPPPPIDNGDITSFPLSVYAPASSVEYQCQNLYQLEGNKRITCRNGQWSEPPKCLHPCVISREIMENYNIALRWTAKQKLYSRTGESVEFVCKRGYRLSSRSHTLRTTCWDGKLEYPTCAKRENLYFQG
B2: EWE-hC3Nb1 (VHH)
VHH: QVQLVETGGGLVQAGGSLRLSCAASGSIFSINAMGWFRQAPGKEREFVATINRSGGRTYYADSVKGRFTISRDNGKNMVYLQMHSLKPEDTAIYYCAAGTGWSPQTDNEYNYWGQGTQVTVSS
B3: EWEnH (other)
chain: EWEQVQLVETGGGLVQAGGSLRLSCAASGSIFSINAMGWFRQAPGKEREFVATINRSGGRTYYADSVKGRFTISRDNGKNMVYLQMHSLKPEDTAIYYCAAGTGWSPQTDNEYNYWGQGTQVTVSSGGGGSGGGGSGGGGSGGGGSRPCGHPGDTPFGTFTLTGGNVFEYGVKAVYTCNEGYQLLGEINYRECDTDGWTNDIPICEVVKCLPVTAPENGKIVSSAMEPDREYHFGQAVRFVCNSGYKIEGDEEMHCSDDGFWSKEKPKCVEISCKSPDVINGSPISQKIIYKENERFQYKCNMGYEYSERGDAVCTESGWRPLPSCEEA

target: C3b (UniProt P01024 23-667; P01024 749-1663); assay: BLI
Sequence (P01024 23-667, chain 1 of 2): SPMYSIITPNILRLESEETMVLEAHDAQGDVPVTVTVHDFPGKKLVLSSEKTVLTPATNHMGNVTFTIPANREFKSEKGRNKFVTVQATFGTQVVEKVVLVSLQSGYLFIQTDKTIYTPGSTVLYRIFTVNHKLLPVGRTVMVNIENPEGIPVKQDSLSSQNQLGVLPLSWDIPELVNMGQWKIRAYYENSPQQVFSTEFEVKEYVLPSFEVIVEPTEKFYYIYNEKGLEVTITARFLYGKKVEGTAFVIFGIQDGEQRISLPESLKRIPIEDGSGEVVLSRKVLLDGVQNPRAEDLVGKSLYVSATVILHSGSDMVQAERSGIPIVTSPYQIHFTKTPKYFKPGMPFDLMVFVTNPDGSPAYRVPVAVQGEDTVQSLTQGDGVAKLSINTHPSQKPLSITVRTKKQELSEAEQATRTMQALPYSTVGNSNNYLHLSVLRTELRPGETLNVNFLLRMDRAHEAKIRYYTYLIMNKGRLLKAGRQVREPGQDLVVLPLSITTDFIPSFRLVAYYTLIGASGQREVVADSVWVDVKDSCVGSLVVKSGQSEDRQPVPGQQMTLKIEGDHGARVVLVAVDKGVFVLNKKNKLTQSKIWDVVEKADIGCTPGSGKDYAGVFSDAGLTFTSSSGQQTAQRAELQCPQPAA
Sequence (P01024 749-1663, chain 2 of 2): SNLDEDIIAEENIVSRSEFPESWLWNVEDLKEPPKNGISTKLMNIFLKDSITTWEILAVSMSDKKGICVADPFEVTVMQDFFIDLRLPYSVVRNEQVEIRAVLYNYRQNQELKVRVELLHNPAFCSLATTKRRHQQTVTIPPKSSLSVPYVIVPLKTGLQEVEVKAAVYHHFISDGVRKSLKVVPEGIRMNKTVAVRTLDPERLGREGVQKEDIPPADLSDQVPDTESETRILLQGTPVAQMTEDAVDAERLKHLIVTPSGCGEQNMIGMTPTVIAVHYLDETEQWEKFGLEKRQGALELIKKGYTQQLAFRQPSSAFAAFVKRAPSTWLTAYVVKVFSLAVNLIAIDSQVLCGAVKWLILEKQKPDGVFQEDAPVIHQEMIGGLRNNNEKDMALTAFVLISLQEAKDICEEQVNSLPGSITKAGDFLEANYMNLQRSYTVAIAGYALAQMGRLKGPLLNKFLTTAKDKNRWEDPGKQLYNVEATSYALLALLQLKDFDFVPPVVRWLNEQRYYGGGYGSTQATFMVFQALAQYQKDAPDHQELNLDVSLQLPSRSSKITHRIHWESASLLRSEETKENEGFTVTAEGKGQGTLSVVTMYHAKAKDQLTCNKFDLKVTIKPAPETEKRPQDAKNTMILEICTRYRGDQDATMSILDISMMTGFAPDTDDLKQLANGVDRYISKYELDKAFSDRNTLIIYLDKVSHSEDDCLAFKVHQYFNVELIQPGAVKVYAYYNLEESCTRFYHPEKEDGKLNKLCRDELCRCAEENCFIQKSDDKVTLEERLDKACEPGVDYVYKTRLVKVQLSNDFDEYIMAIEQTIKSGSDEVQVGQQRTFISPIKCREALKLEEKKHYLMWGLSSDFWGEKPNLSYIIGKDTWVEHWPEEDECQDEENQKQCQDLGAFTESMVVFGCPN

| Kd [nM] | Binder |
| --- | --- |
| 0.4 | B1 |
| 3 | B2 |
| 7.1 | B3 |
